Experimental data published in patent US20260207759A1, “COMPOSITION OF CD40-BINDING MOLECULE AND PHARMACEUTICAL USE THEREOF” (SUZHOU SUNCADIA BIOPHARMACEUTICALS CO., LTD., priority 2022, published 2026).

How the values were obtained:
CD40 [1] = target: T1, CD40 (Homo sapiens, UniProt P25942); assay: Inhibition of CD40 reporter gene cell activity (HEK-Blue CD40L cells), humanized antibodies; assay type: cell-based; design: host or cells: HEK-Blue CD40L cells
Method: HEK-Blue CD40L cells were purchased from Invivogen (Cat. #hkb-cd40). The cells were stably transfected with the human CD40 gene and the NF-kB-mediated SEAP genome. The activation level of the CD40 signaling pathway can be characterized by measuring the amount of secreted SEAP in the supernatant using QUANTI-Blue, the substrate of SEAP. In the assays, the inhibitory effects of the CD40 antagonistic antibodies on the CD40L-induced HEK-Blue CD40L cell activation were measured, and the in vitro cell activity of the CD40 antagonistic antibodies was assessed based on IC50.
HEK-Blue CD40L cells were cultured in a DMEM medium containing 10% FBS, 100 μg/mL Normocin, 100 μg/mL Zeocin, and 30 µg/mL Blasticidin, with 2-3 passages a week. HEK-Blue CD40L cells were plated at 5E4 cells/well into a 96-well cell culture plate (the medium was DMEM containing 10% FBS and 100 μg/mL Normocin) and incubated overnight. […] CD40L-his (R&D, 2706-CL-025) and anti-His antibody (R&D, MAB050-500) were added, and the plate was incubated overnight. After cell centrifugation, 20 μL of the cell supernatant was transferred to a new 96-well white plate, and 180 μL of QUANTI-Blue substrate solution was added. […] The absorbance at 620 nm was measured with an Envision microplate reader, and IC50 values were calculated and used to assess the in vitro cell activity of the CD40 antagonistic antibodies.
Target sequence in this assay (P25942 21-277): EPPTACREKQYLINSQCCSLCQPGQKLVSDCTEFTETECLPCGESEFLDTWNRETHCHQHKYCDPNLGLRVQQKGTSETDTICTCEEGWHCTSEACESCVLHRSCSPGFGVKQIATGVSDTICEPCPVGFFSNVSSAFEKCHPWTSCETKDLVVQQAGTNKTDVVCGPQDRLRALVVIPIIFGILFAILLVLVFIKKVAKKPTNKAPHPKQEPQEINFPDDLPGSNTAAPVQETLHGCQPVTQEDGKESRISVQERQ

CD40 [2] = target: T1, CD40; assay: SPR (Biacore) affinity of anti-CD40 antibodies for human CD40; assay type: binding; design: Glu21-Arg193; purchased Acrobiosystems Inc. CD0-H5228; details: mobile phase Human CD40
Method: The test antibody was affinity-captured on an anti-human Fc chip, and a series of concentrations of His-tagged human or cynomolgus monkey CD40 antigen were allowed to flow over the chip surface. Reaction signals were detected in real time using a Biacore instrument, and thus association and dissociation curves were obtained. The buffer used in the experiment was HBS-EP+10× buffer solution (Cat. #BR-1006-69, GE) diluted to 1×(pH 7.4) with D. I. Water. Fitting was performed on the data obtained from the experiment using a (1:1) Binding model to obtain affinity values.
Target sequence in this assay (P25942 21-193): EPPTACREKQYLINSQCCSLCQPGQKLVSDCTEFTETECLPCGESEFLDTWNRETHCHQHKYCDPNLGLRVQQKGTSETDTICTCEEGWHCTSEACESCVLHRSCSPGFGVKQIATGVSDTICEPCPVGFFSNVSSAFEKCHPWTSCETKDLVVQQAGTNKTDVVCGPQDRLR

CD40 [3] = target: T1, CD40; assay: B cell activation assay system (human PBMCs, CD40L-induced CD19+CD69+); assay type: cell-based; design: endogenous in cells; host or cells: human PBMCs (B cells); DCs differentiated from human CD14+ monocytes; details: CD40L stimulation overnight
Method: CD40 is highly expressed in B cells, and CD40L, upon binding to CD40, can induce B cell activation and up-regulate the expression of a series of activation markers. CD40 antagonistic antibodies block the binding of CD40L to CD40, thereby eliminating the immune activation process of B cells.
Human PBMCs were plated at 2E5 cells/well and 50 μL/well into a 96-well cell culture plate (the medium was RPMI-1640 containing 10% FBS and 1% penicillin-streptomycin). Serially diluted test antibodies were added at 50 μL/well, and the cells were co-incubated at 37° C. in 5% CO2 for 0.5 h. CD40L-his and an anti-His antibody were added to each well for overnight stimulation. The following day, the plate was centrifuged, the supernatant was removed, and the cells were washed twice with FACS buffer and stained at room temperature for 15 min with 100 μL of Fixable viability dye EF780 (Invitrogen, 65086514) diluted at 1:1000. The cells were washed twice and then blocked at room temperature for 10 min with 100 μL of human Fc blocker (BD, 564220) diluted at 1:200. After centrifugation, the cells were incubated at 4° C. for 0.5 h with flow cytometry antibodies (PerCP/Cyanine5.5 anti-human CD19 (Biolegend, 302230), and APC anti-human CD69 (Biolegend, 310910)) diluted at 1:200. After centrifugation, the supernatant was removed, the cells were washed twice with FACS buffer and then resuspended in 200 μL of PBS, and the fluorescence intensity on the cell surface was measured by a flow cytometer (BD FACS Celesta).
With reference to the method in Example 10, the inhibitory activity of the anti-CD40 antibody 9E6-L4H2-AAYTE carrying the AAYTE mutation in the Fc in the B cell activation assay system was measured.
Target sequence in this assay (P25942 21-277): as the sequence (P25942 21-277) above

How did the IC50 (CD40 [1]; Experiment 1) turn out when “CFZ533: anti-CD40 antagonistic antibody CFZ533 (i.e., iscalimab), positive control, variable regions from U.S. Pat. No. 8,277,810B” was run?
Its IC50 is 360 pM.

And the IC50 (CD40 [1]; Experiment 2)?
The IC50 was 350 pM.

And the “Ka” value (CD40 [2])?
Its value is 688000 M⁻¹ s⁻¹.

What about the Kd (CD40 [2]) of the same substance?
Its Kd is 205 pM.

And the “koff (dissociation rate constant, 1/s)” value (CD40 [2])?
The value was 0.000141 s⁻¹.

What about the “CD19+CD69+ % Maximum inhibition rate” value (CD40 [3]) of the same substance?
The value was 95%.

What about the “CD19+CD69+ MFI Maximum inhibition rate” value (CD40 [3]) of the same substance?
The value was 110%.

What about the IC50 (CD40 [3]; read-out: CD19+CD69+ % IC50) of the same substance?
The IC50 was 140 pM.

What about the IC50 (CD40 [3]; read-out: CD19+CD69+ MFI IC50) of the same substance?
Its IC50 is 70 pM.
